Reference: article PMC7199733 (Cell, 2020)

Legend:
[1] = target: MERS VHH-55 (His-tagged, mammalian expression) (llama); experiment: SPR
[2] = target: MERS-CoV RBD (crystallised, tag and glycans removed) (MERS-CoV England1, UniProt K9N5Q8)
MERS-CoV RBD protein = MERS-CoV RBD protein (MERS-CoV England1, UniProt K9N5Q8)
MERS-CoV S1 protein = MERS-CoV S1 protein (MERS-CoV England1, UniProt K9N5Q8)
[3] = target: DPP4 protein (recombinant, soluble) (UniProt P27487 40-766); experiment: BLI
DPP4 protein (recombinant, soluble), sequence (P27487 40-766): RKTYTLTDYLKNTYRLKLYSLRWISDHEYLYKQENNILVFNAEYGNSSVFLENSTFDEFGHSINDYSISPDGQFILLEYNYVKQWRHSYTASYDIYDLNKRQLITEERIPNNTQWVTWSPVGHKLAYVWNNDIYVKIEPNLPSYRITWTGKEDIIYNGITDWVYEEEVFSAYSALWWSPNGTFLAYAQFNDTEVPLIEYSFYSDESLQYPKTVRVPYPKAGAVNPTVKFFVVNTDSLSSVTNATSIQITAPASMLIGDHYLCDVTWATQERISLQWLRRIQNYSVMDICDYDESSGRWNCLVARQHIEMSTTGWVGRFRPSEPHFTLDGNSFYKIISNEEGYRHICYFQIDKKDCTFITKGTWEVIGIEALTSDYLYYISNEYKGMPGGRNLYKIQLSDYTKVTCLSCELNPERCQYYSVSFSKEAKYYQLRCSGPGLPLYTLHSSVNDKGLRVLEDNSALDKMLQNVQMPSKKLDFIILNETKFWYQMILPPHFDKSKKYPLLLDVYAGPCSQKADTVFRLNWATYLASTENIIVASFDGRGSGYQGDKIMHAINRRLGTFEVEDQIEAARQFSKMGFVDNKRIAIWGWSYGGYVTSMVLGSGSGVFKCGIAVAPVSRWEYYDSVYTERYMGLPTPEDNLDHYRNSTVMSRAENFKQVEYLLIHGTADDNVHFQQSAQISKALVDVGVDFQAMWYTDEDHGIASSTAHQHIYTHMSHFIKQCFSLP

MERS-CoV S1 protein, sequence (K9N5Q8 18-751): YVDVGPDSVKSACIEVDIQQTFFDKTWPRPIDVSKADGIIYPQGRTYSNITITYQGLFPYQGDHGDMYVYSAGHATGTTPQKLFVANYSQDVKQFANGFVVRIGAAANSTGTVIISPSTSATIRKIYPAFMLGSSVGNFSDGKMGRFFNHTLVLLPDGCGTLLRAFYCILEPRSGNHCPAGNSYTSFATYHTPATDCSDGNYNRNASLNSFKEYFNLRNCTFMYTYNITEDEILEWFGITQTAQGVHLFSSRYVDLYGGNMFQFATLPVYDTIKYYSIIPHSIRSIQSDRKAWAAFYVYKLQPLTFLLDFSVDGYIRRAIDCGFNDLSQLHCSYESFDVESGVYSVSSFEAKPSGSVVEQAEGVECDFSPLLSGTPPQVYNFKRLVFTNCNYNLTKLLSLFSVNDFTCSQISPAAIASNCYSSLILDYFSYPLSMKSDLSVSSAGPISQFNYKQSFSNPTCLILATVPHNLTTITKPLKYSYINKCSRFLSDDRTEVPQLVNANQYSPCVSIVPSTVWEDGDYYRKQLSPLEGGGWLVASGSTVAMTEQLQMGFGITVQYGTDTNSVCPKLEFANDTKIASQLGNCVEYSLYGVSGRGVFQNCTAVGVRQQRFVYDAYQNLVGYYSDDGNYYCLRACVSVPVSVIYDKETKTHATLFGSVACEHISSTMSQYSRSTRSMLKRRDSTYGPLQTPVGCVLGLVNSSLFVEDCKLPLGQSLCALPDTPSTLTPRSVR

For “MERS-CoV RBD protein (from UniProt K9N5Q8 367-589) (domain or fragment)”, the Kd [1] was 0.0792 nM.

B1: MERS VHH-55 (VHH)
VHH: QVQLQESGGGLVQAGGSLRLSCVASGSIFSINAMDWYRQAPGKQRELVAGITSGGSTNYGDFVKGRFTISRDNAKNTVYLQMDSLKPEDTAVYYCAAEVGGWGPPRPDYWGHGTQVTVSS
B1: binds [2]; binds (MERS-CoV RBD protein); binds (MERS-CoV S1 protein).

B2: Fc-tagged MERS-CoV RBD (domain or fragment)
chain: EAKPSGSVVEQAEGVECDFSPLLSGTPPQVYNFKRLVFTNCNYNLTKLLSLFSVNDFTCSQISPAAIASNCYSSLILDYFSYPLSMKSDLSVSSAGPISQFNYKQSFSNPTCLILATVPHNLTTITKPLKYSYINKCSRFLSDDRTEVPQLVNANQYSPCVSIVPSTVWEDGDYYRKQLSPLEGGGWLVASGSTVAMTEQLQMGFGITVQYGTDTNSVCPKLE
B2: binds [3].
